Measurements taken from the DeepSol protein solubility set.

Assay: soluble on expression in E. coli; label from the status in PepcDB or PDB records

Soluble on expression in E. coli, not soluble:
MGSDKIHHHHHHMTPDEVLRIASMHAVRGEYETALSLLRQLHAFIPDDIQVMRALGIVLANSGDHEAALPFLHQVAQRQCTPDNVMGLIKVLGAMRRFPDIDHVCSVVWPHIGDELAFLGEWGYANLLMERFDRALEILGKALALDPHFRPALHNGASALVRSGRGEEAVSMYSRLGRAWASTEAVARDFVGEYAALSQSYDDNPLHHYFSARLVRLVQDARPEAMPDSVLELGCGSGLLSQALPQKPDRLVGIDISPDMLARARTRGAYSSLLCGDLVEVMAGLEEPFDAVMSAGVLCYLPDLRKVFANVARLLSPGGVFAFSVDPVGDDMEIAEMEPGEFAHSRPYLRALAAETGLTEIRIDIDLHRGAPGFWCSFGKAG
MGSDKIHHHHHHMTPIPKTSVPKTSVPTTPEPIRTNIPTALGKCLSLCLCLLLPLTQAWAETPANADVTASDNAIIAGHEFSHDSSEFKTPRRYMVSLPEGYHGNTRHYPVLYVVDADFQFQHVSALALHLARMGKIAPMIVVGIANQGQSDYLYTTTWKSDEGEAFGGADTFYRYLAKELIPTIDKQFRTNPHKALAGYSLGGLFTLYAMTQANSPFDAYLAMSPSVWYDKMHYIELLKQRLQKSPIEAPLFLTLANEQEMGVDELVTALKGYDAQKIHWQFKQYPSENHFTTALPALNDGLLFLSPDYGLDGSDMLALGDYRAVLDYFAKRKANWAGFHIEWLQAYQFGKYLFWSKQLDKLDGILAAVKQEFPDSLTIVTVQVAKGFNVKGDGARAKALLDSVAKEGEASPYWHREMSLYYQSQGDEANAQRHQQKALALATQYRLNTWELWELQ
MGSDKIHHHHHHMTPSMVEDVRIEQLWIPDSLDGPDSADFLAAVEVGRKVRMQTWGSDDLAYTPLEKLLEFADPYERQVILVARVEGNIVGTVDIALPLADNLDLAEFTLDILPEFQRQGVGRQLLEAAEQFARAEGRSMILIDTNHPGVSLSSSADDQLVPGSGLGFVPMGSREVEFARKTGYTLQHIEQFSSCLLPLDTKLVAELSDEAEQANAGRYRLHHWTDRCPDIWLEGVAALENQAGGDTEPSTRTDEQMVFDGAMIRKAEDATIAQGRRTVVTAVEHIATGTLVGLTTISVLSQRQDVVFQDDTVVMQEHRGNKLGLLIKVANMVRLTEQFPDARVIYTWNAPENRYLLKVNQQLGFNTAGVTGIWQKDLPDLGPSSS
MGSDKIHHHHHHMTPYRDNTPHLARDNHLLFTELARDYCLSMPISFKEALDRAQDATGLSMRKLADKAGVSYEQLKKVRQGKSQTTNAEDALKIATAVGVSFEQFMSGEFDASPTISIAGKVGAGAQVPVFDAYEKGDGPQVECPPGIGPHGVVAVEVEGDSMEPVYSAGDLLFYSRNGHDSVPDDVIGYKCVCEDADGMGWVKQVKAGDEPGLFHLISLNPTGANMWNVRLKWAARVRLHWPAEFARKK
MGSDKIHHHHHHMTQPFKDAIGICKAIMRNGYDAYVVNTQLQSEILDQDCLEIDIACEPGYVELGKIFPGLEMSGEDGVVGTLREGGTLFRFYHTDTDDSSHPEATLARVTPTMLRRLEAKGTLPASLACPFIPSSAETYQGFDDFSKGDIRFEGVPDETLRRSYVLGVRAMRIAANFDLPIEPNSWMAIVRSASRILDYVPVTEIMDEWRKVEAENMYKFVQLMFDSMLLHGLIPELAALSRIRHLRTPEAGEETVLDHTIECMRRYPEELPFDWLGTVATMFHDVGKLYAAEYYNGKWTFYQHHRIGAKVTRKILRRLHFLPEDVDLICHLVRNHMRFHFMLTDKGIRRFKALDEYPRLIEMARADIKARDGNYTHFNHNMKYLERAETPEQMLEPLLNGNEIMEFTGLKPGPYVGVIRDALLKAQVTGEVTSMEEAIEYVKTYSERAPR
MGSDKIHHHHHHMTQRHSRILLFVVNTPEFFLSHRLPIAIAAHKAGYEVHVASAEGDGVQAVLAHGFVHHSIGFARSGQNPWVEFRTLVSLVQVMRRVQPDIVHLITIKPVLYGGIAARLVRVPAVVSAVSGLGTVFLAHTWATRLRRWFIIELYKAAFKQRSLAVIFQNPDDRDTLISSGAIQSGDTRMIRGSGVSLDDYPCVTEPEGKPVAVMAARLLRNKGVVEFVGAARILRDRGVDVDMRLIGSPDLDNPASVTELELERWKSESVVTLMGYRKDIAHQYASSNIVCLPSYYGEGLPKSLVEAAACGRAVVTTDHPGCRDAILPDETGVLIPIKDSVALANAIQRLIENPDLRRKMGKAGRELAEEAFSIDQIVEQHLKIYDEVMATVRNGSLRQ
MGSDKIHHHHHHMTRILLRNKLDECLAAWQKAGFSVLAPVKRHEMSCFGEVQKSGDMALDLVLTERTIKDQFFPQTEPLIKYRIGKQQIDSETMTPPEKKRVFFGVRPCDASGLAIDDPLFGWDYKDDYWFRRREKSVIVTIACAQADDFCMCTSVKLSPDSTKGADVMLRPLSDGSGWQVEAVSDRGTALVDTVSSLLQESSAEAAPVPQVAEKFDVEKVMEWLADKENFESQFWKDIALRCVGCGSCTFLCPTCHCFDIQDEGDTYQGIRRKNWDSCSFPLFTMHTSGHNPRNTQSTRWRQRIMHKFNYYRGKFGVNSCSGCGRCTRQCPVDMGITETLQAITNLPR
MGSDKIHHHHHHMTRRPPLINRLGATPVHPERDPAHPLVVFGDNRFCAGELLDVQKMAGPHMHSQIELNFVLEGSMTYWFDGRELTISEGRLCLFWGMIPHQVIDRREGTRFICLYVPMSVFLGLASLSQFRDSVFRGAVIEALHLRAWDREIFLRWRDELLGGDEGDIEIVRSELTARLMRIERDGWRDLREQGSALASLGQRDAGWMLHVEKMLRFIGEHAPDTISAEDVGRAAGLHPNYAMSLFKRAVGTTINQAIIRHRLDTAQSLLISSDMPITEVAYESGFGSLSTFYEAFQRRFMEKPVQYRRRMRAKGTAAQSIA
MGSDKIHHHHHHMTRYQHLATLLAERIEQGLYRHGEKLPSVRSLSQEHGVSISTVQQAYQTLETMKLITPQPRSGYFVAQRKAQPPVPPMTRPVQRPVEITQWDQVLDMLEAHSDSSIVPLSKSTPDVEAPSLKPLWRELSRVVQHNLQTVLGYDLLAGQRVLREQIARLMLDSGSVVTADDIIITSGCHNSMSLALMAVCKPGDIVAVESPCYYGSMQMLRGMGVKVIEIPTDPETGISVEALELALEQWPIKGIILVPNCNNPLGFIMPDARKRAVLSLAQRHDIVIFEDDVYGELATEYPRPRTIHSWDIDGRVLLCSSFSKSIAPGLRVGWVAPGRYHDKLMHMKYAISSFNVPSTQMAAATFVLEGHYHRHIRRMRQIYQRNLALYTCWIREYFPCEICITRPKGGFLLWIELPEQVDMVCVARQLCRMKIQVAAGSIFSASGKYRNCLRINCALPLSETYREALKQIGEAVYRAME
MGSDKIHHHHHHMTSAANLVRITQPAISRLIRDLEEEIGISLFERTGNRLRPTREAGILFKEVSRHFNGIQHIDKVAAELKKSHMGSLRVACYTAPALSFMSGVIQTFIADRPDVSVYLDTVPSQTVLELVSLQHYDLGISILAGDYPGLTTEPVPSFRAVCLLPPGHRLEDKETVHATDLEGESLICLSPVSLLRMQTDAALDSCGVHCNRRIESSLALNLCDLVSRGMGVGIVDPFTADYYSANPVIQRSFDPVVPYHFAIVLPTDSPPPRLVSEFRAALLDALKALPYETI
MGSDKIHHHHHHMTSVEPTKAVLFLQGPPSILWTEFARAFEQAGVKTHHVNFTLGDFLFWRKRGAKNYRGSFSKWPAYLRRLIAEKGITDIVYYADRLPYHAKAAEIGEELGVRCHAVEWGYLRPDWLTFERDGMGRFSHFPNDPKAIRAIAAKVEEPDIAVKYPHTFGQEAFNEVIYNLLNFFGRPFYPLYNADKYYSALVDYLPWLLKAGVKPARLPEGFLEDGQPPFYLVALQLQSDYQIRANSPYRHLRDMMRQVIASFVKNAPAGSKLLFKQHPLDNGLERWHKVLRHIAREFKIEDRVVFIEEGDLHDILQKTAGVVIVNSTVGLHSLRAQKPTIVLGCAVFDVPGLTHQGRLDDFWKRPEPVDPELMRDLVKAMAATIQIKGDFFNKAGRQAAIGAMVQRVIEGTVNMPDAFIDPPPRLTSPKGILTVLGRPVELDWEEDAAVPDMTYARSGPIR
MGSDKIHHHHHHMTTDGQLAYQQTCDYPIEERQSEQQVIRQYLPLIKRIVSQMRSHCGVMLSLEDMEQIGMMALLESSRRYPGELDNGFISFAGQRIRGAILDELRRQDWRPRPVRQQAHELNDVVRRLSREMGREPSDLEVASALGLSAEDYRERLYSTQAESMKSLDELLLVGEHPVDRGNDVEQLMLKQTLIKVISKLNEREQLILSLYYHHELNLKEIAMALGLTETRICQLHKSAISQLKTILQR
